The text below walks through data of US20160159879A1 (UNIVERSITY OF NORTH CAROLINA AT CHAPEL HILL, published 2016).

Series [1] addresses yfp-tagged αENaC stably expressed in JME nasal epithelial cells. The series can be described thus: fluorescence binding isotherm on polarized JME cells expressing yfp-αENaC, 30 min, empty-vector cells as non-specific binding, Hill fit.
In series [2] the test system is T1, Recombinant V5/6His-tagged SPLUNC1 purified from HEK293 media.
T1 sequence: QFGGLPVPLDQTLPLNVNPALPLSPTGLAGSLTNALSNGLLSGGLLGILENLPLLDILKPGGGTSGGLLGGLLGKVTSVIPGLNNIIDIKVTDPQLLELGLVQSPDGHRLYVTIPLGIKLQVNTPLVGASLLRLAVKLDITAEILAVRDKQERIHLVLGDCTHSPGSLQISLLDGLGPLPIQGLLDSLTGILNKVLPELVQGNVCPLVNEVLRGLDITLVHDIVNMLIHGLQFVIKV

Series [3] addresses αβγENaC expressed in Xenopus laevis oocytes (rat) (UniProt P37089). The series can be described thus: cell-based or functional assay.
Series [4] deals with ENaC endogenous to primary human bronchial epithelial cultures (human) (UniProt P37088). The series can be described thus: cell-based or functional assay.
Series [5] addresses T2, Human βENaC subunit, HA (N-terminus) and V5 (C-terminus) tagged, expressed in HEK293T cells (human, UniProt P51168 1-640, glycosylated (EndoH and tunicamycin experiments)).
T2 sequence (looked up): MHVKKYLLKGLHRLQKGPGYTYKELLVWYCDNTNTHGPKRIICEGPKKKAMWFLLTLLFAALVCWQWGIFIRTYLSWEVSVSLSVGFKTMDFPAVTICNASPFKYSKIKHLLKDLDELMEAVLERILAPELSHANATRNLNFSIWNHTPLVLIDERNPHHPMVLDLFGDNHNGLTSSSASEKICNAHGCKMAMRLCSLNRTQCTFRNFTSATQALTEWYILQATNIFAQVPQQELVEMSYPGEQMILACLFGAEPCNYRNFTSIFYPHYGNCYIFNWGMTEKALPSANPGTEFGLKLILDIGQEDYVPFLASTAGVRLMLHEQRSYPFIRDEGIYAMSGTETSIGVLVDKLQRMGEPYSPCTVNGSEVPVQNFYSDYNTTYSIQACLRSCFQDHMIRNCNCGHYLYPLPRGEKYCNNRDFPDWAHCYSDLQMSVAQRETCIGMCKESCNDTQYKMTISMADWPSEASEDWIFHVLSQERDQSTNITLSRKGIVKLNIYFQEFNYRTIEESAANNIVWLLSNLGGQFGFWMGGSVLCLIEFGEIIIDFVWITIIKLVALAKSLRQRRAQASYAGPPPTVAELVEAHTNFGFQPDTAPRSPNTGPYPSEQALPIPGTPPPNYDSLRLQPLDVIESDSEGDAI
The series can be described thus: peptide pull-down on neutravidin beads, Western blot with anti-V5. A general note: A western blot detects proteins with antibodies after separation by electrophoresis.

The target of series [6] is ENaC endogenous to primary human bronchial epithelial cultures (human, UniProt P37088 1-669; P51168 1-640; P51170 1-649). The series can be described thus: cell-based or functional assay.
Series [7] concerns the target T3, Human γENaC subunit, HA (N-terminus) and V5 (C-terminus) tagged, expressed alone in HEK293T cells (human, UniProt P51170 1-649).
T3 sequence (looked up): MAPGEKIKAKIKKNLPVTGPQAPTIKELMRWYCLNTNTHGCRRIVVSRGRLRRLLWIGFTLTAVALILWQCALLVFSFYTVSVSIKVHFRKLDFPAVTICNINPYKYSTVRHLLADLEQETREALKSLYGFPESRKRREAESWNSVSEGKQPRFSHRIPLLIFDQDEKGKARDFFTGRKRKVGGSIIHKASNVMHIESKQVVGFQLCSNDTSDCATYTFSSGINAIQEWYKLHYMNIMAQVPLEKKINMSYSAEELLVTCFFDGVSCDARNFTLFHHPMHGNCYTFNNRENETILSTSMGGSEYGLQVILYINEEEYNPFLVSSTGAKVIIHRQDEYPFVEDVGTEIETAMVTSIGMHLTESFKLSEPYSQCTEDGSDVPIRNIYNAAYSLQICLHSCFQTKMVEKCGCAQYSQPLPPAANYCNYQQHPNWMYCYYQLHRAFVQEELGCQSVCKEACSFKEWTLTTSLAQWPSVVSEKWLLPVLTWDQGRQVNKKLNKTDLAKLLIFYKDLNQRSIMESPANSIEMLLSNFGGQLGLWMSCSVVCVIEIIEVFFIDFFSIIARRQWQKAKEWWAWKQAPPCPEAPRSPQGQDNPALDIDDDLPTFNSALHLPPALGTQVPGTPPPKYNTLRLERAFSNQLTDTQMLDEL
The series can be described thus: pull-down with biotinylated S18 of subunits expressed individually in HEK cells, Western blot.

The target of series [8] is T4, Human αENaC subunit, HA (N-terminus) and V5 (C-terminus) tagged, expressed alone in HEK293T cells (human, UniProt P37088 1-669).
T4 sequence (looked up): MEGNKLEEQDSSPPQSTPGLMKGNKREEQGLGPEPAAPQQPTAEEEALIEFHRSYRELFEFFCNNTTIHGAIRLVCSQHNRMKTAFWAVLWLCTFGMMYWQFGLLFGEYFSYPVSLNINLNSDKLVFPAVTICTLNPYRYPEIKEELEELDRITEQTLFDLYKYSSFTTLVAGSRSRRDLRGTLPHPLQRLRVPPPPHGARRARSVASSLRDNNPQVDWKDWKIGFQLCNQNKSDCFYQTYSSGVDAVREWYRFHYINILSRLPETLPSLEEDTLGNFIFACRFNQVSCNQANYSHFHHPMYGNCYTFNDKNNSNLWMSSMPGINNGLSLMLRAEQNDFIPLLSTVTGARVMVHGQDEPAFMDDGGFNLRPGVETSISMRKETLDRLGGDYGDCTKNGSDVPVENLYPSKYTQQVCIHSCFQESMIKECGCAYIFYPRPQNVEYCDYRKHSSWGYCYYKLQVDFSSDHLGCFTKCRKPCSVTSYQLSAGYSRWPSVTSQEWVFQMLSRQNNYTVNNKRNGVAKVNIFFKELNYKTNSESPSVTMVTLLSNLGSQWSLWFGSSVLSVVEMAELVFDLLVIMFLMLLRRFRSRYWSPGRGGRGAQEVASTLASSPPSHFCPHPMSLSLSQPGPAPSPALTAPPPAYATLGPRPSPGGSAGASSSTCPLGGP
The description is as above.

For series [9], the target named is αβγENaC expressed in Xenopus laevis oocytes (rat, UniProt P37089 1-698; P37090 1-638; P37091 1-650). The series can be described thus: cell-based or functional assay.

Ends that are not written are not given here. * marks the point of attachment. Biotin = O=C1N[C@H]2[C@H](CS[C@H]2CCCCC(=O)*)N1

αβγENaC expressed in Xenopus laevis oocytes, sequence (P37089 whole entry, chain 1 of 3): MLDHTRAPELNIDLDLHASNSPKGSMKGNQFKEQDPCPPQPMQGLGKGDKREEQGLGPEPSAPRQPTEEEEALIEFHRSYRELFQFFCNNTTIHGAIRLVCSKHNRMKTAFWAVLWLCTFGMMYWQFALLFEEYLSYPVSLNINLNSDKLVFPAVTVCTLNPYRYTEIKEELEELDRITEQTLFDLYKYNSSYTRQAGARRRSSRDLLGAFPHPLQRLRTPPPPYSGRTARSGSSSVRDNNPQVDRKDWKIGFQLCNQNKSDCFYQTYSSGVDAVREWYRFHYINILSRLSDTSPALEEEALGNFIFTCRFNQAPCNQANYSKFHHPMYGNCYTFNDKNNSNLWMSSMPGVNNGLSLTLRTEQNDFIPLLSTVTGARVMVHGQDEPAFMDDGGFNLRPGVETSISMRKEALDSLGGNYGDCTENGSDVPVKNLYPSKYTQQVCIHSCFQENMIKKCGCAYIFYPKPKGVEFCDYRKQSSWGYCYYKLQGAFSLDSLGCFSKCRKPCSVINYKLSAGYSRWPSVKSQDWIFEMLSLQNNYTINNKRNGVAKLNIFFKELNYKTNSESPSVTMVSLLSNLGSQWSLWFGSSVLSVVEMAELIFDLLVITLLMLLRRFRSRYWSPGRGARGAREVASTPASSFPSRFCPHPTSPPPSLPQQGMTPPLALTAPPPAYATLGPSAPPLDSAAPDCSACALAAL
αβγENaC expressed in Xenopus laevis oocytes, sequence (P37090 whole entry, chain 2 of 3): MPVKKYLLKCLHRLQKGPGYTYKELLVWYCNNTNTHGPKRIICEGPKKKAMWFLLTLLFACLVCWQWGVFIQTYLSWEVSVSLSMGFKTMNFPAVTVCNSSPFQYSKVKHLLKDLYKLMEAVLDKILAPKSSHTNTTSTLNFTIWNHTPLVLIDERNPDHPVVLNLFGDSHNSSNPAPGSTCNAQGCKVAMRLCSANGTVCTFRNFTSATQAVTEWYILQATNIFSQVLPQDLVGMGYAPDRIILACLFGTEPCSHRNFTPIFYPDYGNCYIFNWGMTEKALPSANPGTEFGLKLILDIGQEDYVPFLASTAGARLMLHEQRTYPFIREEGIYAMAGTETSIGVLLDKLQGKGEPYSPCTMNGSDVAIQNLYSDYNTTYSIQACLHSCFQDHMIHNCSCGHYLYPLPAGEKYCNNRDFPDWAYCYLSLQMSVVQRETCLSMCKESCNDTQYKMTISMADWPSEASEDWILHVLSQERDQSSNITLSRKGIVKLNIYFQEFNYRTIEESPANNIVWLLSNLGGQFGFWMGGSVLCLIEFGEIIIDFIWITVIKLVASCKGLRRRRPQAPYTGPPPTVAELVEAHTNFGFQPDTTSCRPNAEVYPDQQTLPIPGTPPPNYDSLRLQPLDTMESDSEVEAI
αβγENaC expressed in Xenopus laevis oocytes, sequence (P37091 whole entry, chain 3 of 3): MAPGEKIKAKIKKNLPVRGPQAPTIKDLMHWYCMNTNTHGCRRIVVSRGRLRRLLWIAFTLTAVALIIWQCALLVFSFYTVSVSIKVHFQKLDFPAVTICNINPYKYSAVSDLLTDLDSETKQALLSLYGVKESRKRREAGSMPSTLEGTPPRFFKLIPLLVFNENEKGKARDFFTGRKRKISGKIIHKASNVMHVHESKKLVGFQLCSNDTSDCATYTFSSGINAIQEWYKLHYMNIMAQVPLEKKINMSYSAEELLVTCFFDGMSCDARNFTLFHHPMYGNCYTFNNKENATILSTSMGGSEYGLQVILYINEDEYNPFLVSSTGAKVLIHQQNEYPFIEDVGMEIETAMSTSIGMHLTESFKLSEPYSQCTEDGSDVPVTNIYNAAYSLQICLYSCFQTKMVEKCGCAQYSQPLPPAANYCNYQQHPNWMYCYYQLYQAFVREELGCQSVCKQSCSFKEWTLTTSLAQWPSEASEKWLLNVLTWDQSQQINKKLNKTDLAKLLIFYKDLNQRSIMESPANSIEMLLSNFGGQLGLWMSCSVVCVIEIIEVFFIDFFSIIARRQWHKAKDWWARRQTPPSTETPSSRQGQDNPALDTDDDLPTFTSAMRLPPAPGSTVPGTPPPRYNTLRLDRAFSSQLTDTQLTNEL
αβγENaC expressed in Xenopus laevis oocytes (rat), sequence (P37089 whole entry, chain 1 of 3): as the sequence (P37089 whole entry, chain 1 of 3) above
αβγENaC expressed in Xenopus laevis oocytes (rat), sequence (P37090 whole entry, chain 2 of 3, further chain): as the sequence (P37090 whole entry, chain 2 of 3) above
αβγENaC expressed in Xenopus laevis oocytes (rat), sequence (P37091 whole entry, chain 3 of 3, further chain): as the sequence (P37091 whole entry, chain 3 of 3) above

“Texas red-labeled recombinant SPLUNC1 (from UniProt Q9NP55 20-256)” came in with an equilibrium dissociation constant (Kd) in [1] of 0.055 µg/mL.
As for Trypsin, the “cleavage of the fluorogenic substrate BGAR-MCA by 1.0 or 0.3 U/ml trypsin” value in series [2] is reported as 50 ng/ml rSPLUNC1 had only a modest affect (˜10%) on the ability of either 1.0 or 0.3 U/ml trypsin to cleave a fluorogenic substrate.
In [3], “Recombinant V5/6His-tagged SPLUNC1 purified from HEK293 media (from UniProt Q9NP55 20-256)” registered a decrease in ENaC currents (amiloride-sensitive), two electrode voltage clamp in oocytes of 70%. This molecule also came in with a transepithelial electrical resistance in series [4] of 33%.
In the case of Biotin-ADGGLLLLNNPPPPQTVV (also called ADG) [Control peptide ABC (alphabetized G22-A39), biotinylated], in series [5], the binding result was “no binding”.
Turning to GGLPVPLDQTLPLNVNPA [S18 peptide (amino acids 22-39 of human SPLUNC1)], the “IC50, dose response of ASL height in CF HBECs 8 h post-S18 addition” value in series [6] worked out at 600 nM.
Consider Biotin-GGLPVPLDQTLPLNVNPA (also called G22-A39) [Biotinylated S18 peptide], for which the binding result in series [7] and in [8] was “no binding” throughout.

B1: V5-tagged SPLUNC1 expressed in Xenopus oocytes from injected cRNA (other, not shown: small tags and cut ends)
chain: QFGGLPVPLDQTLPLNVNPALPLSPTGLAGSLTNALSNGLLSGGLLGILENLPLLDILKPGGGTSGGLLGGLLGKVTSVIPGLNNIIDIKVTDPQLLELGLVQSPDGHRLYVTIPLGIKLQVNTPLVGASLLRLAVKLDITAEILAVRDKQERIHLVLGDCTHSPGSLQISLLDGLGPLPIQGLLDSLTGILNKVLPELVQGNVCPLVNEVLRGLDITLVHDIVNMLIHGLQFVIKV
B1: the “decrease in amiloride-sensitive current relative to control oocytes” value in series [9] was around 70%.

Broadly, the Kd is a measure of binding affinity in units of concentration. High values mean a looser complex, low ones a tighter complex.
